Measurements published in patent US20240123088A1.

Target: RmaDnaB-SpdCas9C (Rhodothermus marinus DnaB C-intein fused to the C-terminal split SpdCas9, HA-tagged) (Rhodothermus marinus (C-intein); Streptococcus pyogenes (dCas9 half)) (UniProt Q99ZW2)
Assay: cell-based or functional assay

## SpdCas9N-RmaDnaB (N-terminal split SpdCas9 fused to the Rhodothermus marinus DnaB N-intein, FLAG-tagged)
  in vivo reconstitution of tsdCas9, Western blot band intensity, mouse striatum co-transduced with AAV9: > 50%
